Substrate in the series: O=[N+]([O-])c1ccc(O[C@@H]2O[C@H](CO)[C@@H](O)[C@H](O)[C@H]2O)cc1
Put plainly: purified protein.

Where [1] appears, read: enzyme storage buffer (HEPES elution buffer), ten biological replicates.

Residue numbers refer to the chain shown, from its start. In names and notes the source's numbering stands.

B1: β-glucosidase B (BglB) (Paenibacillus polymyxa) (protein)
chain: MSENTFIFPATFMWGTSTSSYQIEGGTDEGGRTPSIWDTFCQIPGKVIGGDCGDVACDHFHHFKEDVQLMKQLGFLHYRFSVAWPRIMPAAGIINEEGLLFYEHLLDEIELAGLIPMLTLYHWDLPQWIEDEGGWTQRETIQHFKTYASVIMDRFGERINWWNTINEPYCASILGYGTGEHAPGHENWREAFTAAHHILMCHGIASNLHKEKGLTGKIGITLNMEHVDAASERPEDVAAAIRRDGFINRWFAEPLFNGKYPEDMVEWYGTYLNGLDFVQPGDMELIQQPGDFLGINYYTRSIIRSTNDASLLQVEQVHMEEPVTDMGWEIHPESFYKLLTRIEKDFSKGLPILITENGAAMRDELVNGQIEDTGRHGYIEEHLKACHRFIEEGGQLKGYFVWSFLDNFEWAWGYSKRFGIVHINYETQERTPKQSALWFKQMMAKNGF
Usually Km stands for the substrate concentration at which the rate is half of its maximum. The term kcat denotes the maximal rate divided by the concentration of active sites. For the protein B1, under setting [1], the Km amounted to 5.0 ± 0.2 mM and the kcat came to 14.7 ± 0.167 s⁻¹.

B2: β-glucosidase B (BglB) (Paenibacillus polymyxa; R243A) (protein)
chain: B1 chain with R243A
The kcat/Km is the turnover number divided by the Michaelis constant. B2: for the setting “enzyme storage buffer”, the Km is recorded as 19.46 ± 1.17 mM, the kcat stood at 184 s⁻¹ and the kcat/Km is 9430 ± 606 M⁻¹ s⁻¹.

B3: β-glucosidase B (BglB) (Paenibacillus polymyxa; E225A) (protein)
chain: B1 chain with E225A
For B3, for the setting “enzyme storage buffer”, the Km was found to be 0.63 ± 0.15 mM, the kcat came to 1.5 s⁻¹ and the kcat/Km stood at 2390 ± 602 M⁻¹ s⁻¹.
